Tested on: H1975 lung adenocarcinoma cells
Experiment: LDH assay, H1975 cells, 48 hours co-culture with 1 μM Osimeritinib
Assay type: cell-based
Details: E:T 1:1, 48 hours, CD4+ T cells
Text: CER30 comprises a Tim4 binding domain, Tim4 transmembrane domain, and an engulfment signaling domain comprising a primary engulfment signaling domain comprising a TRAF2 signaling domain. CER30 has a polypeptide sequence as set forth in SEQ ID NO:96. CER110 has a polypeptide sequence of SEQ ID NO:125 and comprises a Tim4 binding domain, Tim4 transmembrane domain, and an engulfment signaling domain comprising a primary engulfment signaling domain comprising a TRAF6 signaling domain and a secondary engulfment signaling domain comprising a DAP12 signaling domain. CER112 has a polypeptide sequence of SEQ ID NO:128 and comprises a Tim4 binding domain, Tim4 transmembrane domain, and an engulfment signaling domain comprising a primary engulfment signaling domain comprising a TRAF6 signaling domain and a secondary engulfment signaling domain comprising a NFAM1 signaling domain. CER127 has a polypeptide sequence of SEQ ID NO:175 and comprises a Tim4 binding domain, Tim4 transmembrane domain, and an engulfment signaling domain comprising a primary engulfment signaling domain comprising a TRAF2 signaling domain and a secondary engulfment signaling domain comprising a TLR2 signaling domain. H1975 cells are more resistant to EGFR inhibitors, so Osimeritinib was used at slightly higher concentration. H1975 lung adenocarcinoma cells harboring an EGFR mutation were co-cultured with CER-expressing or mock-transduced (vector only) CD4+ T cells with 1 μM of Osimeritinib. After 48 hours of co-culture at a 1:1 effector:target cell ratio, T cells were washed away, and the number of viable H1975 cells was quantified using a calorimetric LDH assay (FIG. 57). Cell viability experiments were performed in triplicate and presented as % of control.

B1: CER27: Tim4 binding and transmembrane domains, TLR2 signaling domain; SEQ ID NO:93 (protein)
chain: MSKGLLLLWLVTELWWLYLTPAASEDTIIGFLGQPVTLPCHYLSWSQSRNSMCWGKGSCPNSKCNAELLRTDGTRIISRKSTKYTLLGKVQFGEVSLTISNTNRGDSGVYCCRIEVPGWFNDVKKNVRLELRRATTTKKPTTTTRPTTTPYVTTTTPELLPTTVMTTSVLPTTTPPQTLATTAFSTAVTTCPSTTPGSFSQETTKGSAFTTESETLPASNHSQRSMMTISTDIAVLRPTGSNPGILPSTSQLTTQKTTLTTSESLQKTTKSHQINSRQTILIIACCVGFVLMVLLFLAFLHRFHGLWYMKMMWAWLQAKRKPRKAPSRNICYDAFVSYSERDAYWVENLMVQELENFNPPFKLCLHKRDFIPGKWIIDNIIDSIEKSHKTVFVLSENFVKSEWCKYELDFSHFRLFDENNDAAILILLEPIEKKAIPQRFCKLRKIMNTKTYLEWPMDEAQREGFWVNLRAAIKS
modifications: CER27 chimeric engulfment receptor
killing of H1975 cells (LDH): synergistic killing of H1975 lung adenocarcinoma cells upon EGFR inhibition

B2: CER30: Tim4 binding and transmembrane domains, Traf2 signaling domain; SEQ ID NO:96 (protein)
chain: MSKGLLLLWLVTELWWLYLTPAASEDTIIGFLGQPVTLPCHYLSWSQSRNSMCWGKGSCPNSKCNAELLRTDGTRIISRKSTKYTLLGKVQFGEVSLTISNTNRGDSGVYCCRIEVPGWFNDVKKNVRLELRRATTTKKPTTTTRPTTTPYVTTTTPELLPTTVMTTSVLPTTTPPQTLATTAFSTAVTTCPSTTPGSFSQETTKGSAFTTESETLPASNHSQRSMMTISTDIAVLRPTGSNPGILPSTSQLTTQKTTLTTSESLQKTTKSHQINSRQTILIIACCVGFVLMVLLFLAFLMAAASVTPPGSLELLQPGFSKTLLGTKLEAKYLCSACRNVLRRPFQAQCGHRYCSFCLASILSSGPQNCAACVHEGIYEEGISILESSSAFPDNAARREVESLPAVCPSDGCTWKGTLKEYESCHEGRCPLMLTECPACKGLVRLGEKERHLEHECPERSLSCRHCRAPCCGADVKAHHEVCPKFPLTCDGCGKKKIPREKFQDHVKTCGKCRVPCRFHAIGCLETVEGEKQQEHEVQWLREHLAMLLSSVLEAKPLLGDQSHAGSELLQRCESLEKKTATFENIVCVLNREVERVAMTAEAC
modifications: CER30 chimeric engulfment receptor
killing of H1975 cells (LDH): synergistic killing of H1975 lung adenocarcinoma cells upon EGFR inhibition

B3: CER108: Tim4 binding and transmembrane domains, DAP12 primary and TLR8 secondary signaling domains; SEQ ID NO:137 (protein)
chain: MSKGLLLLWLVTELWWLYLTPAASEDTIIGFLGQPVTLPCHYLSWSQSRNSMCWGKGSCPNSKCNAELLRTDGTRIISRKSTKYTLLGKVQFGEVSLTISNTNRGDSGVYCCRIEVPGWFNDVKKNVRLELRRATTTKKPTTTTRPTTTPYVTTTTPELLPTTVMTTSVLPTTTPPQTLATTAFSTAVTTCPSTTPGSFSQETTKGSAFTTESETLPASNHSQRSMMTISTDIAVLRPTGSNPGILPSTSQLTTQKTTLTTSESLQKTTKSHQINSRQTILIIACCVGFVLMVLLFLAFLYFLGRLVPRGRGAAEAATRKQRITETESPYQELQGQRSDVYSDLNTQRPYYKHHLFYWDVWFIYNVCLAKVKGYRSLSTSQTFYDAYISYDTKDASVTDWVINELRYHLEESRDKNVLLCLEERDWDPGLAIIDNLMQSINQSKKTVFVLTKKYAKSWNFKTAFYLALQRLMDENMDVIIFILLEPVLQHSQYLRLRQRICKSSILQWPDNPKAEGLFWQTLRNVVLTENDSRYNNMYVDSIKQY
modifications: CER108 protein
killing of H1975 cells (LDH): synergistic killing of H1975 lung adenocarcinoma cells upon EGFR inhibition

B4: CER124: Tim4 binding and transmembrane domains, TLR2 primary and NFAM1 secondary signaling domains; SEQ ID NO:151 (protein)
chain: MSKGLLLLWLVTELWWLYLTPAASEDTIIGFLGQPVTLPCHYLSWSQSRNSMCWGKGSCPNSKCNAELLRTDGTRIISRKSTKYTLLGKVQFGEVSLTISNTNRGDSGVYCCRIEVPGWFNDVKKNVRLELRRATTTKKPTTTTRPTTTPYVTTTTPELLPTTVMTTSVLPTTTPPQTLATTAFSTAVTTCPSTTPGSFSQETTKGSAFTTESETLPASNHSQRSMMTISTDIAVLRPTGSNPGILPSTSQLTTQKTTLTTSESLQKTTKSHQINSRQTILIIACCVGFVLMVLLFLAFLHRFHGLWYMKMMWAWLQAKRKPRKAPSRNICYDAFVSYSERDAYWVENLMVQELENFNPPFKLCLHKRDFIPGKWIIDNIIDSIEKSHKTVFVLSENFVKSEWCKYELDFSHFRLFDENNDAAILILLEPIEKKAIPQRFCKLRKIMNTKTYLEWPMDEAQREGFWVNLRAAIKSLWNKKRMRGPGKDPTRKCPDPRSASSPKQHPSESVYTALQRRETEVYACIENEDGSSPTAKQSPLSQERPHRFEDDGELNLVYENL
modifications: CER124 protein
killing of H1975 cells (LDH): synergistic killing of H1975 lung adenocarcinoma cells upon EGFR inhibition

B5: CER129: Tim4 binding and transmembrane domains, TLR8 primary and TRAF2 secondary signaling domains; SEQ ID NO:177 (protein)
chain: MSKGLLLLWLVTELWWLYLTPAASEDTIIGFLGQPVTLPCHYLSWSQSRNSMCWGKGSCPNSKCNAELLRTDGTRIISRKSTKYTLLGKVQFGEVSLTISNTNRGDSGVYCCRIEVPGWFNDVKKNVRLELRRATTTKKPTTTTRPTTTPYVTTTTPELLPTTVMTTSVLPTTTPPQTLATTAFSTAVTTCPSTTPGSFSQETTKGSAFTTESETLPASNHSQRSMMTISTDIAVLRPTGSNPGILPSTSQLTTQKTTLTTSESLQKTTKSHQINSRQTILIIACCVGFVLMVLLFLAFLHHLFYWDVWFIYNVCLAKVKGYRSLSTSQTFYDAYISYDTKDASVTDWVINELRYHLEESRDKNVLLCLEERDWDPGLAIIDNLMQSINQSKKTVFVLTKKYAKSWNFKTAFYLALQRLMDENMDVIIFILLEPVLQHSQYLRLRQRICKSSILQWPDNPKAEGLFWQTLRNVVLTENDSRYNNMYVDSIKQYMAAASVTPPGSLELLQPGFSKTLLGTKLEAKYLCSACRNVLRRPFQAQCGHRYCSFCLASILSSGPQNCAACVHEGIYEEGISILESSSAFPDNAARREVESLPAVCPSDGCTWKGTLKEYESCHEGRCPLMLTECPACKGLVRLGEKERHLEHECPERSLSCRHCRAPCCGADVKAHHEVCPKFPLTCDGCGKKKIPREKFQDHVKTCGKCRVPCRFHAIGCLETVEGEKQQEHEVQWLREHLAMLLSSVLEAKPLLGDQSHAGSELLQRCESLEKKTATFENIVCVLNREVERVAMTAEAC
modifications: CER129 protein
killing of H1975 cells (LDH): synergistic killing of H1975 lung adenocarcinoma cells upon EGFR inhibition

B6: CER127: Tim4 binding and transmembrane domains, TRAF2 primary and TLR2 secondary signaling domains; SEQ ID NO:175 (protein)
chain: MSKGLLLLWLVTELWWLYLTPAASEDTIIGFLGQPVTLPCHYLSWSQSRNSMCWGKGSCPNSKCNAELLRTDGTRIISRKSTKYTLLGKVQFGEVSLTISNTNRGDSGVYCCRIEVPGWFNDVKKNVRLELRRATTTKKPTTTTRPTTTPYVTTTTPELLPTTVMTTSVLPTTTPPQTLATTAFSTAVTTCPSTTPGSFSQETTKGSAFTTESETLPASNHSQRSMMTISTDIAVLRPTGSNPGILPSTSQLTTQKTTLTTSESLQKTTKSHQINSRQTILIIACCVGFVLMVLLFLAFLMAAASVTPPGSLELLQPGFSKTLLGTKLEAKYLCSACRNVLRRPFQAQCGHRYCSFCLASILSSGPQNCAACVHEGIYEEGISILESSSAFPDNAARREVESLPAVCPSDGCTWKGTLKEYESCHEGRCPLMLTECPACKGLVRLGEKERHLEHECPERSLSCRHCRAPCCGADVKAHHEVCPKFPLTCDGCGKKKIPREKFQDHVKTCGKCRVPCRFHAIGCLETVEGEKQQEHEVQWLREHLAMLLSSVLEAKPLLGDQSHAGSELLQRCESLEKKTATFENIVCVLNREVERVAMTAEACHRFHGLWYMKMMWAWLQAKRKPRKAPSRNICYDAFVSYSERDAYWVENLMVQELENFNPPFKLCLHKRDFIPGKWIIDNIIDSIEKSHKTVFVLSENFVKSEWCKYELDFSHFRLFDENNDAAILILLEPIEKKAIPQRFCKLRKIMNTKTYLEWPMDEAQREGFWVNLRAAIKS
modifications: CER127 protein
killing of H1975 cells (LDH): synergistic killing of H1975 lung adenocarcinoma cells upon EGFR inhibition
